Data set [1] addresses T1, coagulation factor IXa (FIXa) (Homo sapiens) (UniProt P00740+P00740). The data set is described as follows: competition. The settings on record: 2'-F pyrimidines, 2'-OH purines; 3-nt 2'-OMe 3' tail; comparable to 9.3t.
Data set [2] has as its target T2, coagulation factor Xa (FXa) (Homo sapiens) (UniProt P00742+P00742). The note with it: 2'-F pyrimidines, 2'-OH purines; <10% RNA bound at up to 5 uM protein; >5000-fold specificity.
In data set [3] the target is coagulation factor VIIa (FVIIa) (UniProt P08709+P08709). The settings on record: 2'-F pyrimidines, 2'-OH purines; <10% RNA bound at up to 5 uM protein; >5000-fold specificity.
Data set [4] addresses coagulation factor XIa (FXIa) (UniProt P03951+P03951). The settings on record: 2'-F pyrimidines, 2'-OH purines; <10% RNA bound at up to 5 uM protein; >5000-fold specificity.
In data set [5] the target is activated protein C (APC) (UniProt P04070+P04070). The settings on record: 2'-F pyrimidines, 2'-OH purines; <10% RNA bound at up to 5 uM protein; >5000-fold specificity.
Data set [6] concerns the target T1, coagulation factor IXa (FIXa) (Homo sapiens). The note with it: 2'-F pyrimidines, 2'-OH purines; physiologic salt and pH, 37 C.
The target in data set [7] is T2, coagulation factor Xa (FXa) (Homo sapiens). The settings on record: 2'-F pyrimidines?
The target is the same in data set [8]. The settings on record: 2'-F pyrimidines?; versus 11F7t; no anticoagulant activity in PT or APTT.

Read-outs that look alike come from different tables or passages of the source.

In general, Kd refers to the concentration at which binding is half-saturated. “AUGGGGACUAUACCGCGUAAUGCUGCCUCCCCAUN [9.3t-3NT]”: the Kd in data set [1] is < 1.5 nM.

With “AUGGGGACUAUACCGCGUAAUGCUGCCUCCCCAUN [9.3t]”, the Kd in data set [2] is > 5000 nM; in data set [3], > 5000 nM; in data set [4], > 5000 nM; in data set [5], > 5000 nM; in data set [6], 0.6 nM.

Regarding “GAGAGCCCCAGCGAGAUAAUACUUGGCCCCGCUCUUN [11F7t]”, in data set [7], the Kd amounted to 1.5 nM.

Consider “GAGAGCCCCAGCGAGAUAAUACUUGUACCCGCUCUUN [11F7tM]”, for which, in data set [8], the binding signal (fold loss of affinity) is > 1300.

These data come from patent publication US20030083294.
